{
  "source": "patent US20150368661A1",
  "target": "recombinant hemagglutinin (HA) (A/New Caledonia/20/99; Protein Sciences) (influenza A virus A/New Caledonia/20/99 (H1N1))",
  "note": "pKd: −log10 of the molar value.",
  "data": [
    {"substance": "plant-produced anti-influenza bnMAb CR6261 IgG1 (expressed in N. benthamiana) (antibody)", "values": [
      {"measurement": "pKd", "value": 10.26}
    ]}
  ]
}
